Laboratory results from patent EP2748199B1 (Board of Regents, The University of Texas System, dated 2019).

Target: T1, human OX40 (human, UniProt P43489 29-277)
T1 construct: whole, on cells; The construct used for transfection is not described; also called hOX40; OX40 receptor
T1 sequence (looked up): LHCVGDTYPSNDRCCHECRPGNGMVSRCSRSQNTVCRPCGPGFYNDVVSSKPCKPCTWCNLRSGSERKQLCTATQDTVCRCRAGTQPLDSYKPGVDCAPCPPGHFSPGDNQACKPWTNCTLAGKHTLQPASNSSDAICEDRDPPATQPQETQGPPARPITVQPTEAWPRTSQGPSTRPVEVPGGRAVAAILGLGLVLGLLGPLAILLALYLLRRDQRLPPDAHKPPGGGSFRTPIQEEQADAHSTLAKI
Test: flow cytometry on L/OX40 cells, FITC goat anti-human IgG

B1: chimeric 119-43-1 IgG1/κ antibody (antibody, V domains shown)
VH: EVKLEESGGGLVQPGGSMKLSCAASGFTFSDAWMDWVRQSPEKGLEWVAEIRSKANNHATYYAESVNGRFTISRDDSKSSVYLQMNSLRAEDTGIYYCTWGEVFYFDYWGQGTTLTVSS
VL: DIQMTQSPSSLSASLGGKVTITCKSSQDINKYIAWYQHKPGKGPRLLIHYTSTLQPGIPSRFSGSGSGRDYSFSISNLEPEDIATYYCLQYDNLLTFGAGTKLELKR
notes: also called Ch119-43-1
B1 was tested. Which EC50 did it give?
Its EC50 is 0.96 µg/mL.
